Laboratory results: the supplement of paper PMC10567573

B1: WDR88 (parent)
chain: LLTITKAHSNAISNCCFTFSGHFL

Variants of: B1
Assay: protein stability index of a GFP-peptide fusion (GPS, HEK-293T) (PSI 1-6); higher = more stable
Conditions: c terminus: a fixed tail appended
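Further: lentivirally expressed fusions sorted by FACS into six bins by GFP to DsRed ratio, PSI derived from sequencing read proportions per bin multiplied by bin number.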

Row | Variant | protein stability index
1 | LLTITKAHSNAISWCCFTFSGHFL [N14W] | 2.37
2 | LLTITKAHSNAISGCCFTFSGHFL [N14G] | 3.72
3 | LLTITKAHSNAISYCCFTFSGHFL [N14Y] | 2.53
4 | LLTITKAHSNAISHCCFTFSGHFL [N14H] | 3.22
5 | LLTITKAHSNAISTCCFTFSGHFL [N14T] | 2.94
6 | DLTITKAHSNAISNCCFTFSGHFL [L1D] | 1.67
7 | HLTITKAHSNAISNCCFTFSGHFL [L1H] | 2.46
8 | ILTITKAHSNAISNCCFTFSGHFL [L1I] | 4.01
9 | ALTITKAHSNAISNCCFTFSGHFL [L1A] | 3.61
10 | KLTITKAHSNAISNCCFTFSGHFL [L1K] | 1.85
11 | YLTITKAHSNAISNCCFTFSGHFL [L1Y] | 4.04
12 | VLTITKAHSNAISNCCFTFSGHFL [L1V] | 2.93
13 | QLTITKAHSNAISNCCFTFSGHFL [L1Q] | 1.59
14 | LRTITKAHSNAISNCCFTFSGHFL [L2R] | 2.41
15 | LQTITKAHSNAISNCCFTFSGHFL [L2Q] | 2.75
16 | LGTITKAHSNAISNCCFTFSGHFL [L2G] | 2.01
17 | LKTITKAHSNAISNCCFTFSGHFL [L2K] | 2.85
18 | LHTITKAHSNAISNCCFTFSGHFL [L2H] | 2.28
19 | LTTITKAHSNAISNCCFTFSGHFL [L2T] | 2.71
20 | LETITKAHSNAISNCCFTFSGHFL [L2E] | 1.57
21 | LSTITKAHSNAISNCCFTFSGHFL [L2S] | 2.4
22 | LLTIIKAHSNAISNCCFTFSGHFL [T5I] | 2.02
23 | LLTIRKAHSNAISNCCFTFSGHFL [T5R] | 2.72
24 | LLTIFKAHSNAISNCCFTFSGHFL [T5F] | 4.83

Row | Variant | protein stability index
25 | LLTIVKAHSNAISNCCFTFSGHFL [T5V] | 3.03
26 | LLTIHKAHSNAISNCCFTFSGHFL [T5H] | 2.9
27 | LLTILKAHSNAISNCCFTFSGHFL [T5L] | 2.03
28 | LLTITKAHSNAISNCCNTFSGHFL [F17N] | 2.58
29 | LLTITKAHSNAISNCCTTFSGHFL [F17T] | 2.66
30 | LLTITKAHSNAISNCCDTFSGHFL [F17D] | 1.92
31 | LLTITKAHSNAISNCCCTFSGHFL [F17C] | 1.84
32 | LLTITKAHSNAISNCCSTFSGHFL [F17S] | 1.37
33 | LLTITKAHSNAISNCYFTFSGHFL [C16Y] | 2.18
34 | LLTITKAHSNAISNCMFTFSGHFL [C16M] | 3.28
35 | LLTITKAHSNAISNCPFTFSGHFL [C16P] | 2.25
36 | LLTITKAHSNAISNCDFTFSGHFL [C16D] | 2.33
37 | LLTITKAHSNAISNCKFTFSGHFL [C16K] | 2.37
38 | LLTITKAHSNAISNCSFTFSGHFL [C16S] | 2.44
39 | LLTITKAHSNAISNCLFTFSGHFL [C16L] | 3.05
40 | LLTITKAHSNAISNCCFKFSGHFL [T18K] | 2.33
41 | LLTITKAHSNAISNCCFWFSGHFL [T18W] | 2.86
42 | LLTITKAHSNAISNCCFYFSGHFL [T18Y] | 2.76
43 | LLTITKAHSNAISNCCFNFSGHFL [T18N] | 3.85
44 | LLTITKAHSNAISNCCFTFSGHIL [F23I] | 2.79
45 | LLTITKAHSNAISNCCFTFSGHNL [F23N] | 1.99
46 | LLTITKAHSNAISNCCFTFSGHAL [F23A] | 3.02
47 | LLTITKAHSNAISNCCFTFSGHGL [F23G] | 2.05
48 | LLTITKAHSNSISNCCFTFSGHFL [A11S] | 3.22

Row | Variant | protein stability index
49 | LLTITKAHSNDISNCCFTFSGHFL [A11D] | 2.27
50 | LLTITKAHSNEISNCCFTFSGHFL [A11E] | 3.24
51 | LLTITKAHSNTISNCCFTFSGHFL [A11T] | 3.57
52 | LLTITKGHSNAISNCCFTFSGHFL [A7G] | 3.76
53 | LLTITKTHSNAISNCCFTFSGHFL [A7T] | 2.58
54 | LLTITKEHSNAISNCCFTFSGHFL [A7E] | 3.31
55 | LLTITKMHSNAISNCCFTFSGHFL [A7M] | 2.8
56 | LLTITKYHSNAISNCCFTFSGHFL [A7Y] | 3.09
57 | LLTITKIHSNAISNCCFTFSGHFL [A7I] | 2.95
58 | LLTITKWHSNAISNCCFTFSGHFL [A7W] | 4.07
59 | LLTITKAHSNAISNCCFTFSGHFM [L24M] | 2.98
60 | LLTITKAHSNAISNCCFTFSGHFR [L24R] | 2.28
61 | LLTITKAHSNAISNCCFTFSGHFH [L24H] | 2.63
62 | LLTITKAHSNAISNCCFTFSGHFG [L24G] | 2.88
63 | LLTITKAHSNAISNCCFTFSGHFQ [L24Q] | 2.64
64 | LLTITKAHSNAISNCCFTFSFHFL [G21F] | 2.41
65 | LLTITKAHSNAISNCCFTFSPHFL [G21P] | 3
66 | LLTITKAHSNAISNCCFTFSDHFL [G21D] | 2.75
67 | LLTITKAHSNAISNCCFTFSNHFL [G21N] | 2.42
68 | LLTITKAHSNAISNCCFTFSKHFL [G21K] | 2.77
69 | LLTITKAHSNAISNCCFTFSCHFL [G21C] | 2.31
70 | LLTITKAHSNAISNCCFTFSYHFL [G21Y] | 2.25
71 | LLTITKAHSNAISNCCFTFSQHFL [G21Q] | 2.92
72 | LLTITKAHSNAISNCCFTFSIHFL [G21I] | 2.97

Row | Variant | protein stability index
73 | LLTITKAHSNAISNCCFTFSAHFL [G21A] | 2.88
74 | LLTITKAHSNAISNYCFTFSGHFL [C15Y] | 2.88
75 | LLTITKAHSNAISNNCFTFSGHFL [C15N] | 2.98
76 | LLTITKAHSNAISNFCFTFSGHFL [C15F] | 3.46
77 | LLTITKAHSNAISNLCFTFSGHFL [C15L] | 2.27
78 | LLTITKAHSNAISNHCFTFSGHFL [C15H] | 2.78
79 | LLTITKAHSNAISNTCFTFSGHFL [C15T] | 3.89
80 | LLTITKAHSNAISNQCFTFSGHFL [C15Q] | 3.52
81 | LLTITKAHSNAISNMCFTFSGHFL [C15M] | 2.19
82 | LLTITKAHSNAISNICFTFSGHFL [C15I] | 3.44
83 | LLTITKAHSNAISNVCFTFSGHFL [C15V] | 3.3
84 | LLTITKAHSNAISNECFTFSGHFL [C15E] | 2.58
85 | LLTITKAHSNAISNACFTFSGHFL [C15A] | 4.06
86 | LLTITKAHSNAISNCCFTFPGHFL [S20P] | 2.34
87 | LLTITKAHSNAISNCCFTFLGHFL [S20L] | 2.94
88 | LLTITKAHSNAISNCCFTFDGHFL [S20D] | 1.98
89 | LLTITKAHSNAISNCCFTFIGHFL [S20I] | 2.07
90 | LLTITKAHSNAISNCCFTFFGHFL [S20F] | 2.6
91 | LLTITKAHSNAISNCCFTFTGHFL [S20T] | 2.67
92 | LLTITKAHSNAISNCCFTFWGHFL [S20W] | 2.06
93 | LLTITKAHSNAISNCCFTFGGHFL [S20G] | 2.99
94 | LLTITKAHSNAISNCCFTFMGHFL [S20M] | 2.56
